Test results reported in article PMC9482650, “Quantitative fragmentomics allow affinity mapping of interactomes” (Nature Communications, 2022).

What was measured:
Test in all cases: holdup assay
Parameters in all cases: key: below the threshold = too weak to quantify, mostly under pKd 3.1 to 4
APBA3_1, O96018 = target: T1, APBA3_1, O96018
T1 sequence (O96018 389-490, limits assumed, looked up): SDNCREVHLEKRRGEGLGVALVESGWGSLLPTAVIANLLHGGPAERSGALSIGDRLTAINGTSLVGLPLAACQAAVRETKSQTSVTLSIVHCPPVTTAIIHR

DLG3_2, Q92796 = target: T2, DLG3_2, Q92796
T2 sequence (Q92796 221-321, limits assumed, looked up): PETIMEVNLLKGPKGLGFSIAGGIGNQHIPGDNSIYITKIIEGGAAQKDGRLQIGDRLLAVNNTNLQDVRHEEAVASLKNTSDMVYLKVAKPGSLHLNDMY

FRMPD1, Q5SYB0 = target: T3, FRMPD1, Q5SYB0
T3 sequence (Q5SYB0 52-145, limits assumed, looked up): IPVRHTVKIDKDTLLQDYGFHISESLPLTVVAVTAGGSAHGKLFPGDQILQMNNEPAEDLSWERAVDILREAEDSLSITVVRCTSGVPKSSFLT

FRMPD2_3, Q68DX3 = target: FRMPD2_3, Q68DX3
FRMPD4, Q14CM0 = target: FRMPD4, Q14CM0
GORASP1, Q9BQQ3 = target: GORASP1, Q9BQQ3
GRIP1_4, Q9Y3R0 = target: T4, GRIP1_4, Q9Y3R0
T4 sequence (Q9Y3R0 467-571, limits assumed, looked up): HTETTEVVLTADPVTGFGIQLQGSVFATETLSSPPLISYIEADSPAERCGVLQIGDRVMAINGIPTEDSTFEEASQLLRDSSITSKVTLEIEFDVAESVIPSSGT

GRIP1_5, Q9Y3R0 = target: T5, GRIP1_5, Q9Y3R0
T5 sequence (Q9Y3R0 568-668, limits assumed, looked up): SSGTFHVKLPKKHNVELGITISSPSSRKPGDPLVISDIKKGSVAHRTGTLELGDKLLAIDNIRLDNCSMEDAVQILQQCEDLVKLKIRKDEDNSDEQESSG

GRIP2_7, Q9C0E4 = target: GRIP2_7, Q9C0E4
HTRA2, O43464 = target: HTRA2, O43464
HTRA3, P83110 = target: T6, HTRA3, P83110
T6 sequence (P83110 354-453, limits assumed, looked up): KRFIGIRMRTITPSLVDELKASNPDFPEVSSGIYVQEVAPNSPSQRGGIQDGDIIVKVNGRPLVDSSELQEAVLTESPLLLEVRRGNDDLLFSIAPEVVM

IL16_3, Q14005 = target: IL16_3, Q14005
Inadl_3, Q8NI35 = target: Inadl_3, Q8NI35
Inadl_5, Q8NI35 = target: Inadl_5, Q8NI35
LIMK2, P53671 = target: LIMK2, P53671
LNX1_2, Q8TBB1 = target: LNX1_2, Q8TBB1
MAGI2_2, Q86UL8 = target: MAGI2_2, Q86UL8
NHERF4_4, Q86UT5 = target: NHERF4_4, Q86UT5
PDZD2_2, O15018 = target: T7, PDZD2_2, O15018
T7 sequence (O15018 329-429, limits assumed, looked up): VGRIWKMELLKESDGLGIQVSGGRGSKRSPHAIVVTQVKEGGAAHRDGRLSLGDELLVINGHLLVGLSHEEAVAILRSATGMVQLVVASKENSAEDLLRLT

PDZD7_3, Q9H5P4 = target: T8, PDZD7_3, Q9H5P4
T8 sequence (Q9H5P4 857-944, limits assumed, looked up): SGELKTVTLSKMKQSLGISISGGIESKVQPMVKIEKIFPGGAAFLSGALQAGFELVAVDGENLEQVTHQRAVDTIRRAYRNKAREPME

SIPA1L2, Q9P2F8 = target: T9, SIPA1L2, Q9P2F8
T9 sequence (Q9P2F8 945-1036, limits assumed, looked up): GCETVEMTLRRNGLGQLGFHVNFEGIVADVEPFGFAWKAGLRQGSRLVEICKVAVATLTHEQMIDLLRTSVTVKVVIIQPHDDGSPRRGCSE

SNTG2, Q9NY99 = target: T10, SNTG2, Q9NY99
T10 sequence (Q9NY99 68-166, limits assumed, looked up): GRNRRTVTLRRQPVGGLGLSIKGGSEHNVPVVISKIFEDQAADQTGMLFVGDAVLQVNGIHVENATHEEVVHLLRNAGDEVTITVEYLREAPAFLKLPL

TJP1_3, Q07157 = target: TJP1_3, Q07157
TJP3_3, O95049 = target: T11, TJP3_3, O95049
T11 sequence (O95049 375-456, limits assumed, looked up): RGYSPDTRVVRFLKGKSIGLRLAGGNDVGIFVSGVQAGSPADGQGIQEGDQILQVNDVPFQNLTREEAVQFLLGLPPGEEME

HTRA1, Q92743 = target: HTRA1, Q92743
MAGI2_6, Q86UL8 = target: MAGI2_6, Q86UL8
[1] = plain residues with an end cap or a label only (N-terminal biotin on a linker: ahx)
[2] = plain residues with an end cap or a label only (N-terminal biotin on a linker: ttds)

Sequence of LIMK2, P53671 (P53671 143-248): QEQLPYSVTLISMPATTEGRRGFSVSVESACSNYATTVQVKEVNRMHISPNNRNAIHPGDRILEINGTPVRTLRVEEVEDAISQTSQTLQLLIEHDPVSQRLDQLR
Sequence of FRMPD2_3, Q68DX3 (Q68DX3 1073-1166): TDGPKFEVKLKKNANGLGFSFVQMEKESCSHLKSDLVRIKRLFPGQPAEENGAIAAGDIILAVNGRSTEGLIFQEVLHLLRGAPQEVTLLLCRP
Sequence of TJP1_3, Q07157 (Q07157 416-512): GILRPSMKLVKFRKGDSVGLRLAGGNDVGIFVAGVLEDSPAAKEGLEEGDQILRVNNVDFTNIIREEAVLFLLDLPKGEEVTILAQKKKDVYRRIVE
Sequence of NHERF4_4, Q86UT5 (Q86UT5 464-550): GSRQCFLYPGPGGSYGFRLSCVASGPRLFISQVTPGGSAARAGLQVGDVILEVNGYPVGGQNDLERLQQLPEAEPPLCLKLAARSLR
Sequence of MAGI2_2, Q86UL8 (Q86UL8 410-522): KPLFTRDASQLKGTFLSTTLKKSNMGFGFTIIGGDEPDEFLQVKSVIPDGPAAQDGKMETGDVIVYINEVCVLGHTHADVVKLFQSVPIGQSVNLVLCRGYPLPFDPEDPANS
Sequence of HTRA1, Q92743 (Q92743 360-477): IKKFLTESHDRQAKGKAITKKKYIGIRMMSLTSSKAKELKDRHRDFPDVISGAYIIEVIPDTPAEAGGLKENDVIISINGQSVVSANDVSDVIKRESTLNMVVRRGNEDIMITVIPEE
Sequence of GRIP2_7, Q9C0E4 (Q9C0E4 934-1023): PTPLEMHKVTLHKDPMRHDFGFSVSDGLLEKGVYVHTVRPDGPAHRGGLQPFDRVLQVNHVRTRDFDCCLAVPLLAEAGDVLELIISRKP
Sequence of HTRA2, O43464 (O43464 355-458): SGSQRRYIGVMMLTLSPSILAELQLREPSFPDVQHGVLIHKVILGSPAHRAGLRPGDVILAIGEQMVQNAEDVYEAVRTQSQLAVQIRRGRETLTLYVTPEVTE
Sequence of LNX1_2, Q8TBB1 (Q8TBB1 371-470): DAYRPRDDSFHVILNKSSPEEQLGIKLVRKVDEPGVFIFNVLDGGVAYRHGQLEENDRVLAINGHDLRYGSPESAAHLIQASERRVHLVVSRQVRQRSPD
Sequence of Inadl_3, Q8NI35 (Q8NI35 359-469): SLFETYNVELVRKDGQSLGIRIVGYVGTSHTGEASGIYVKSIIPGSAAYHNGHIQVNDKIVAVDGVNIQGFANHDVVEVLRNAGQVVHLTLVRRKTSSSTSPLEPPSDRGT
Sequence of MAGI2_6, Q86UL8 (Q86UL8 1141-1229): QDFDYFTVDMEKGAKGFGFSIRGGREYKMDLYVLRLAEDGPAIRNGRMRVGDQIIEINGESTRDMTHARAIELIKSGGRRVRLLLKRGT
Sequence of GORASP1, Q9BQQ3 (Q9BQQ3 1-208): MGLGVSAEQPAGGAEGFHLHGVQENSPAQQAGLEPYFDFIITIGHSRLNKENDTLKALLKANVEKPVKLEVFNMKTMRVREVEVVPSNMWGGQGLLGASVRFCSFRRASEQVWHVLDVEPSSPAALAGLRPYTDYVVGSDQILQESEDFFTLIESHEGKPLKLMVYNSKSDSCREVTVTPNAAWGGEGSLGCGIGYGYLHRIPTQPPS
Sequence of IL16_3, Q14005 (Q14005 1107-1207): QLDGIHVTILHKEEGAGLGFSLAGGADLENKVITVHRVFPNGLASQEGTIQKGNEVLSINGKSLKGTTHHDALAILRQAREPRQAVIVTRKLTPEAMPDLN
Sequence of Inadl_5, Q8NI35 (Q8NI35 673-780): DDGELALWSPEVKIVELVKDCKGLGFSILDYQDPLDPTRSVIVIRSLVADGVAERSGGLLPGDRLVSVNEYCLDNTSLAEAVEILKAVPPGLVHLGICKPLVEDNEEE
Sequence of FRMPD4, Q14CM0 (Q14CM0 67-160): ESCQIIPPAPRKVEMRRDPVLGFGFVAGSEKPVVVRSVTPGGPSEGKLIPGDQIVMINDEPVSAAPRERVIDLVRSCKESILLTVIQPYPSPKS

LCKSHAFSHV [PDLIM7, Q9NR12;Q9NR12-1]
pKd (APBA3_1, O96018; [1]): below the threshold | pKd (DLG3_2, Q92796; [1]): below the threshold | pKd (FRMPD1, Q5SYB0; [1]): below the threshold | pKd (FRMPD2_3, Q68DX3; [1]): below the threshold | pKd (FRMPD4, Q14CM0; [1]): below the threshold | pKd (GORASP1, Q9BQQ3; [1]): below the threshold | pKd (GRIP1_4, Q9Y3R0; [1]): below the threshold | pKd (GRIP1_5, Q9Y3R0; [1]): below the threshold | pKd (GRIP2_7, Q9C0E4; [1]): below the threshold | pKd (HTRA2, O43464; [1]): below the threshold | pKd (HTRA3, P83110; [1]): below the threshold | pKd (IL16_3, Q14005; [1]): below the threshold | pKd (Inadl_3, Q8NI35; [1]): below the threshold | pKd (Inadl_5, Q8NI35; [1]): below the threshold | pKd (LIMK2, P53671; [1]): below the threshold | pKd (LNX1_2, Q8TBB1; [1]): below the threshold | pKd (MAGI2_2, Q86UL8; [1]): 4.11 | pKd (NHERF4_4, Q86UT5; [1]): below the threshold | pKd (PDZD2_2, O15018; [1]): 4.54 | pKd (PDZD7_3, Q9H5P4; [1]): below the threshold | pKd (SIPA1L2, Q9P2F8; [1]): below the threshold | pKd (SNTG2, Q9NY99; [1]): below the threshold | pKd (TJP1_3, Q07157; [1]): below the threshold | pKd (TJP3_3, O95049; [1]): below the threshold

CLDTSRETDL [KCNA5, P22460]
pKd (APBA3_1, O96018; [2]): below the threshold | pKd (DLG3_2, Q92796; [2]): 4.35 | pKd (FRMPD1, Q5SYB0; [2]): below the threshold | pKd (FRMPD2_3, Q68DX3; [2]): below the threshold | pKd (FRMPD4, Q14CM0; [2]): 3.49 | pKd (GORASP1, Q9BQQ3; [2]): below the threshold | pKd (GRIP1_4, Q9Y3R0; [2]): below the threshold | pKd (GRIP1_5, Q9Y3R0; [2]): below the threshold | pKd (GRIP2_7, Q9C0E4; [2]): below the threshold | pKd (HTRA1, Q92743; [2]): below the threshold | pKd (HTRA2, O43464; [2]): below the threshold | pKd (HTRA3, P83110; [2]): below the threshold | pKd (IL16_3, Q14005; [2]): below the threshold | pKd (Inadl_3, Q8NI35; [2]): below the threshold | pKd (Inadl_5, Q8NI35; [2]): below the threshold | pKd (LIMK2, P53671; [2]): below the threshold | pKd (LNX1_2, Q8TBB1; [2]): below the threshold | pKd (MAGI2_2, Q86UL8; [2]): below the threshold | pKd (MAGI2_6, Q86UL8; [2]): 4.95 | pKd (NHERF4_4, Q86UT5; [2]): below the threshold | pKd (PDZD2_2, O15018; [2]): 3.59 | pKd (PDZD7_3, Q9H5P4; [2]): 4.05 | pKd (SIPA1L2, Q9P2F8; [2]): below the threshold | pKd (SNTG2, Q9NY99; [2]): 4.45 | pKd (TJP1_3, Q07157; [2]): below the threshold | pKd (TJP3_3, O95049; [2]): below the threshold

QPGTPTRTAV [MAP2K2, P36507]
pKd (APBA3_1, O96018; [2]): below the threshold | pKd (DLG3_2, Q92796; [2]): 3.93 | pKd (FRMPD1, Q5SYB0; [2]): below the threshold | pKd (FRMPD2_3, Q68DX3; [2]): below the threshold | pKd (FRMPD4, Q14CM0; [2]): below the threshold | pKd (GORASP1, Q9BQQ3; [2]): below the threshold | pKd (GRIP1_4, Q9Y3R0; [2]): below the threshold | pKd (GRIP1_5, Q9Y3R0; [2]): below the threshold | pKd (GRIP2_7, Q9C0E4; [2]): below the threshold | pKd (HTRA1, Q92743; [2]): below the threshold | pKd (HTRA2, O43464; [2]): below the threshold | pKd (HTRA3, P83110; [2]): 3.5 | pKd (IL16_3, Q14005; [2]): below the threshold | pKd (Inadl_3, Q8NI35; [2]): below the threshold | pKd (Inadl_5, Q8NI35; [2]): below the threshold | pKd (LIMK2, P53671; [2]): below the threshold | pKd (LNX1_2, Q8TBB1; [2]): 3.61 | pKd (MAGI2_2, Q86UL8; [2]): 3.64 | pKd (MAGI2_6, Q86UL8; [2]): below the threshold | pKd (NHERF4_4, Q86UT5; [2]): below the threshold | pKd (PDZD2_2, O15018; [2]): 3.79 | pKd (PDZD7_3, Q9H5P4; [2]): below the threshold | pKd (SIPA1L2, Q9P2F8; [2]): below the threshold | pKd (SNTG2, Q9NY99; [2]): below the threshold | pKd (TJP1_3, Q07157; [2]): below the threshold | pKd (TJP3_3, O95049; [2]): 3.57

EDEDEQVSAV [RAPGEF2, Q9Y4G8]
pKd (APBA3_1, O96018; [1]): below the threshold | pKd (DLG3_2, Q92796; [1]): 3.87 | pKd (FRMPD1, Q5SYB0; [1]): below the threshold | pKd (FRMPD2_3, Q68DX3; [1]): below the threshold | pKd (FRMPD4, Q14CM0; [1]): below the threshold | pKd (GORASP1, Q9BQQ3; [1]): below the threshold | pKd (GRIP1_4, Q9Y3R0; [1]): below the threshold | pKd (GRIP1_5, Q9Y3R0; [1]): below the threshold | pKd (GRIP2_7, Q9C0E4; [1]): below the threshold | pKd (HTRA1, Q92743; [1]): 4.18 | pKd (HTRA2, O43464; [1]): below the threshold | pKd (HTRA3, P83110; [1]): below the threshold | pKd (IL16_3, Q14005; [1]): below the threshold | pKd (Inadl_3, Q8NI35; [1]): below the threshold | pKd (Inadl_5, Q8NI35; [1]): below the threshold | pKd (LIMK2, P53671; [1]): below the threshold | pKd (LNX1_2, Q8TBB1; [1]): below the threshold | pKd (MAGI2_2, Q86UL8; [1]): below the threshold | pKd (MAGI2_6, Q86UL8; [1]): 4.57 | pKd (NHERF4_4, Q86UT5; [1]): below the threshold | pKd (PDZD2_2, O15018; [1]): 5.72 | pKd (PDZD7_3, Q9H5P4; [1]): 3.87 | pKd (SIPA1L2, Q9P2F8; [1]): below the threshold | pKd (SNTG2, Q9NY99; [1]): below the threshold | pKd (TJP1_3, Q07157; [1]): below the threshold | pKd (TJP3_3, O95049; [1]): below the threshold

KKNKDKEYYV [NRXN1, Q9ULB1]
pKd (APBA3_1, O96018; [1]): below the threshold | pKd (DLG3_2, Q92796; [1]): below the threshold | pKd (FRMPD1, Q5SYB0; [1]): below the threshold | pKd (FRMPD2_3, Q68DX3; [1]): 4.17 | pKd (FRMPD4, Q14CM0; [1]): 3.58 | pKd (GORASP1, Q9BQQ3; [1]): 3.8 | pKd (GRIP1_4, Q9Y3R0; [1]): below the threshold | pKd (GRIP1_5, Q9Y3R0; [1]): below the threshold | pKd (GRIP2_7, Q9C0E4; [1]): 4.55 | pKd (HTRA1, Q92743; [1]): 4.84 | pKd (HTRA2, O43464; [1]): below the threshold | pKd (HTRA3, P83110; [1]): 4.2 | pKd (IL16_3, Q14005; [1]): below the threshold | pKd (Inadl_3, Q8NI35; [1]): below the threshold | pKd (Inadl_5, Q8NI35; [1]): 4.25 | pKd (LIMK2, P53671; [1]): below the threshold | pKd (LNX1_2, Q8TBB1; [1]): 3.58 | pKd (MAGI2_2, Q86UL8; [1]): 3.67 | pKd (MAGI2_6, Q86UL8; [1]): below the threshold | pKd (NHERF4_4, Q86UT5; [1]): below the threshold | pKd (PDZD2_2, O15018; [1]): 3.99 | pKd (PDZD7_3, Q9H5P4; [1]): below the threshold | pKd (SIPA1L2, Q9P2F8; [1]): below the threshold | pKd (SNTG2, Q9NY99; [1]): below the threshold | pKd (TJP1_3, Q07157; [1]): below the threshold | pKd (TJP3_3, O95049; [1]): below the threshold
